Laboratory results reported in the MegaScale stability set (Tsuboyama et al. 2023).

B1: HHH_rd1_0493 (parent)
chain: RDEDEKEKIKEALKRGNEDKAKEIAKRANVSPEEYERLRKEAE

Variants of: B1
Test: folding stability dG (cDNA display proteolysis); higher = more stable
Conditions: PBS, room temperature

Folding stability dG [kcal/mol]: each site, then its substitutions
E7: N 2.96, T 3, Q 3.13, L 3.09, M 3.12, R 3.15, W 3.29, I 3.06, K 3.1, P 1.58, S 2.92, V 2.97, H 2.94, Y 2.85
R15: H 3, S 3.1, G 2.71, C 2.31, I 2.77, P 0.627, K 2.91, V 2.83, N 3.17, M 3.21, L 3.09, A 3.36, T 2.81, Q 3.39, Y 2.69, E 3.24, D 2.85, W 2.81, F 2.62
I9: M 1.48, E 0.589, D 0.479, P 0.579, R 0.406, F 0.774, C 1.26, Y 0.577, G 0.603, S 0.587, W 0.614, T 0.61, V 2.09, K 0.396, N 0.856, H 0.471, L 2.28, Q 0.476, A 0.796
G16: L 1.39, W 0.968, R 1.97, I 0.476, E 1.19, K 1.73, F 1.55, P 0.767, Y 0.998, D 1.47, M 1.46, N 1.91, Q 1.56, A 1.67, H 2.04, S 1.29, V 0.445, T 0.598, C 1.76
K22: D 1.73, H 2.46, V 2.44, G 1.64, A 2.61, P 0.613, L 3.1, I 2.8, F 2.31, S 2.2, M 3.03, W 2.75, E 2.26, R 3.21, T 2.24, Q 2.86, Y 2.11, N 2.11, C 1.79
K20: M 3.37, P 0.93, N 2.27, Y 3.13, H 2.87, Q 3.19, E 3.82, W 3.02, L 4.31, S 2.6, R 3, T 2.76, A 3.16, I 3.16, D 2.85, V 3.24, F 2.98, G 2.5
E11: Q 2.83, F 1.56, G 2.34, N 2.88, T 2.29, P 0.82, K 2.24, W 1.91, R 2.54, V 2.04, M 2.67, C 2.99, L 2.71, A 2.82, S 2.58, D 2.96, H 2.38, Y 1.67, I 2.42
N17: G 1.46, Q 3.2, E 3.38, C 1.99, D 3.78, L 3.13, H 3.01, I 1.54, S 2.19, W 3.09, K 2.41, P 1.03, T 1.63, F 2.98, Y 2.75, V 1.45, A 2.65, M 2.94, R 2.68
E18: K 2.25, G 2.06, W 2.62, T 2.84, D 2.47, V 3.19, Q 2.54, M 2.74, F 3.24, S 2.47, H 2.94, P 2.48, N 2.29, A 2.59, Y 3.21, C 2.58, I 3.25, L 2.86, R 2.15
K10: F 2.11, E 0.847, I 2.8, A 1.09, Q 0.854, G 0.528, C 2.32, T 1.7, W 1.57, P 0.064, V 2.28, Y 2.01, H 0.938, N 0.92, M 2.02, S 1.27, R 2.49, L 2.79, D 0.644
I24: W 1.34, S 0.921, K 0.623, M 2.13, F 1.48, H 1.67, N 0.704, Q 1.13, G 0.729, A 1.47, V 1.87, P 0.59, T 1.32, E 1.16, R 1.04, D 0.95, C 1.77, L 2.8
A21: S 1.11, C 1.29, H 0.313, E 0.568, Y 0.355, K 0.184, R 0.336, W 0.514, G 1.13, V 0.589, L 0.541, I 0.511, P 0.448, N 0.483, T 0.424, D 0.52, M 0.506, F 0.6, Q 0.364
D19: R 2.97, P 2.64, F 2.6, E 3.28, V 2.99, N 2.86, G 2.76, W 2.72, Y 2.5, L 2.98, I 2.95, H 2.85, M 3.04, A 3.31, T 3.05, K 3.07, S 2.93, Q 3.15
A12: M 2.86, H 2.85, W 3.01, D 0.746, R 0.882, K 0.896, N 2.1, E 2.85, F 2.87, T 1.43, S 2.15, I 1.24, P 0.229, C 1.94, G 0.656, Q 2.69, L 3.02, Y 2.88, V 1.06
K14: A 2.53, Y 1.97, I 2.67, V 2.33, Q 2.3, E 1.75, S 2.36, N 1.81, L 2.67, P 0.417, M 2.79, W 1.9, C 2.24, T 2.07, F 1.8, G 1.98, H 2.28, D 1.1, R 3.32
L13: H 0.865, A 0.528, M 2.49, D 0.379, F 2.85, V 1.58, K 0.273, R 0.401, G 0.235, N 0.415, Y 0.88, I 2.84, P 0.435, E 0.376, W 1.14, Q 0.615, S 0.332, C 1.37, T 0.471
E23: S 2.42, N 2.02, G 1.92, M 2.33, T 2.22, W 1.79, I 2.35, A 2.87, L 2.16, Q 2.73, C 2.49, P 0.537, Y 1.79, D 2.56, R 2.39, K 2.26, F 1.7, H 1.96, V 2.17
K8: M 3.08, A 3.29, H 2.42, D 2.25, G 2.34, S 2.78, W 2.44, E 2.66, F 2.12, Y 2.09, Q 3.15, C 2.37, R 3, I 2.1, N 2.55, L 3.06, T 2.27, V 1.94, P 0.847
